Data on three substances can be found in PMC8880779 (International Journal of Molecular Sciences, 2022).

One data set has as its target T1, calmodulin (CaM) (Bos taurus, UniProt P62157).
T1 construct: Purified bovine brain CaM; purchased Sigma-Aldrich (Madrid, Spain); host or cells: bovine brain
Briefly: Kinetics of Aβ(1–42) HiLyte-Fluor555 complex formation with CaM (fluorescence increase). It counts as binding, human.

The next data set concerns the target (Ca^2+)4-CaM. To be noted: read-out: dissociation constant of the Aβ:(Ca^2+)4-CaM complex; cited from earlier work. The source says: These neurons are in the brain areas that are highly prone to neurodegeneration in AD. […] Considering their spatial organization in the CaM structure, we included a couple of additional hydrophobic amino acid residues as spacing groups.

On the set-up of data set [1]: method as in PMID 15890345, PMID 18686032, PMID 26890761, PMID 34829555. As to conditions: cited from earlier work.
Data set [2] can be described thus: Aggregation state of Aβ(1–42) stock solutions (photoinduced cross-linking of unmodified proteins). It counts as physicochemical. To be noted: 2 μM stock solutions.
Data set [3] has as its system CaM in cerebellar granule neurons in culture. To be noted: 2 h incubation with 2 μM Aβ(1–42) oligomers; cited from earlier work. The source says: These neurons are in the brain areas that are highly prone to neurodegeneration in AD. […] Therefore, CaM has a high capacity to buffer the intracellular concentrations of these highly neurotoxic Aβ peptides ...

For the substance “Aβ(1–42) HiLyte^TM-Fluor555: Human Aβ(1–42)-HiLyte™-Fluor555 obtained from AnaSpec”, the “Y0, maximum fluorescence increase in the absence of the peptide” value with calmodulin (CaM) (10 nM Aβ(1–42) HiLyte-Fluor555, 5 nM CaM, 1000 s after addition, hyperbolic fit R^2 = 0.966, triplicate) stood at 22%. Besides, the “maximum fluorescence change vs CaM concentration” value in the data set with calmodulin (CaM) (10 nM Aβ(1–42) HiLyte-Fluor555, CaM 2.5, 5 and 10 nM) is “the maximum fluorescence change was achieved when CaM concentration increased from 2.5 to 5 nM, and it is not significantly different between 5 and 10 nM of CaM”. Further, the “slope of linear least-squares fit of first-order plot” value with calmodulin (CaM) (fit y = 9.845 − 0.00396 x (R^2 = 0.922), 10 nM Aβ(1–42) HiLyte-Fluor555, 5 nM CaM, sign of slope in the equation negative) was 0.00396.

Take “Aβ(25–35): highly neurotoxic peptides derived from Aβ(1–42), like Aβ(25–35) (GSNKGAIIGLM; Amyloid-beta protein 42; UniProt P05067 696-706, looked up, fragment)”: the Kd on (Ca^2+)4-CaM is ~1 nM. Further, the neurotoxicity entry in data set [1] was “strongly neurotoxic”.

As to “Aβ(1–42): unlabeled Aβ(1–42) synthesized and supplied by StabVida and GenicBio Limited”, in the data set with calmodulin (CaM) (10 nM CaM, 10 nM Aβ(1–42)), the stoichiometry of complex result is on record as “Aβ(1–42)2:CaM2 complexes”. For the same substance, the “increase of rate constant” value in the data set with calmodulin (CaM) (10 nM vs 5 nM CaM, 10 nM Aβ(1–42)) is given as “about 4 fold”. Further, the “rate constant of the kinetic process” value with calmodulin (CaM) (1:1 molar ratio, 10 nM CaM and 10 nM Aβ(1–42)) is listed as “(18 ± 4)·10^−3 s^−1”. For the same substance, the concentration of monomers result in data set [2] is “undetectable concentration of Aβ(1–42) monomers”. In addition, the predominant aggregation state result in data set [2] (1% NH4OH diluted with phosphate-buffered saline) is on record as “Dimers are the predominant aggregation state”. The Kd on (Ca^2+)4-CaM was ~1 nM. Besides, the “binding of internalized Aβ(1–42) by CaM” value in data set [3] was “CaM binds most of the Aβ(1–42) internalized in cerebellar granule neurons”.
